Reference: publication PMC7578760

B1: DUSP6 site #4 (ITC) (dsDNA)
DNA 1: TTGGATTTCATTCACTGGGG
DNA 2: CCCCAGTGAATGAAATCCAA
B2: DUSP6 site #5 (EMSA) (dsDNA)
DNA 1: GGCAGCTTCATTGAGAGAGA
DNA 2: TCTCTCTCAATGAAGCTGCC
B3: DUSP6 site #6 (ITC) (dsDNA)
DNA 1: GAGAGATTCATTGACACTAA
DNA 2: TTAGTGTCAATGAATCTCTC
B4: DUSP6 site #5 (ITC) (dsDNA)
DNA 1: GGCAGCTTCATTGAGAGAGA
DNA 2: TCTCTCTCAATGAAGCTGCC
B5: DUSP6 mutant site #4 (EMSA) (dsDNA)
DNA 1: TTGGATTTAGCTCACTGGGG
DNA 2: CCCCAGTGAGCTAAATCCAA
B6: DUSP6 site #6 (EMSA) (dsDNA)
DNA 1: GAGAGATTCATTGACACTAA
DNA 2: TTAGTGTCAATGAATCTCTC
B7: DUSP6 site #4 (EMSA) (dsDNA)
DNA 1: TTGGATTTCATTCACTGGGG
DNA 2: CCCCAGTGAATGAAATCCAA

What was measured:
[1] = molecular target: CIC-HMG (UniProt Q96RK0-2 188-288); assay: ITC
[2] = molecular target: T1, CIC-HMG/C1 fusion (UniProt Q96RK0-2 188-288+1401-1608, internal_change); assay: ITC
[3] = molecular target: T1, CIC-HMG/C1 fusion; assay: EMSA

| Binder | binding result [1] | binding result [2] | binding result [3] |
| --- | --- | --- | --- |
| B1 | no binding | binds | – |
| B2 | – | – | binds |
| B3 | – | binds | – |
| B4 | – | binds | – |
| B5 | – | – | no binding |
| B6 | – | – | binds |
| B7 | – | – | binds |
